Reference: FireProtDB (doi:10.1016/s0167-4838(98)00243-x)
Values joined by “and” are separate entries in the source; they are usually repeats but may differ in a detail not shown here. Identical values can stand only once.

B1: Chitosanase, P33665 (parent)
chain: MHSQHRTARIALAVVLTAIPASLATAGVGYASTQASTAVKAGAGLDDPHKKEIAMELVSSAENSSLDWKAQYKYIEDIGDGRGYTGGIIGFCSGTGDMLELVQHYTDLEPGNILAKYLPALKKVNGSASHSGLGTPFTKDWATAAKDTVFQQAQNDERDRVYFDPAVSQAKADGLRALGQFAYYDAIVMHGPGNDPTSFGGIRKTAMKKARTPAQGGDETTYLNAFLDARKAAMLTEAAHDDTSRVDTEQRVFLKAGNLDLNPPLKWKTYGDPYVINS

Variants of: B1
Conditions: Streptomyces sp. (strain N174); pH 7; 42.7 °C; Thermal; CD; sodium phosphate 50 mM; transition: 3; reversible: yes(79%); structure 1CHK; whole UniProt chain shown

Variant | ddG of mutation (higher = less stable) [kcal/mol]
W267F | 2.97
W141F | 3.91

Same assay, conditions: Streptomyces sp. (strain N174); pH 7; 43.2 °C; Thermal; Fluorescence; sodium phosphate 50 mM; reversible: yes(81%); structure 1CHK; whole UniProt chain shown

Variant | ddG of mutation (higher = less stable) [kcal/mol]
W267F | 2.51

Same assay, conditions: Streptomyces sp. (strain N174); pH 7; 52.2 °C; Thermal; CD; sodium phosphate 50 mM; transition: 3; reversible: yes(79%); structure 1CHK; whole UniProt chain shown

Variant | ddG of mutation (higher = less stable) [kcal/mol]
W267F | 1.31
W141F | 1.89

Same assay, conditions: Streptomyces sp. (strain N174); pH 7; Thermal; CD; sodium phosphate 50 mM; transition: 3; reversible: yes(79%); structure 1CHK; whole UniProt chain shown

Variant | change of melting temperature, mutant - wild type (higher = more stable) | unfolding enthalpy (van 't Hoff)
W267F | -6.8 °C and -6.4 °C | 135 kcal/mol and 65 kcal/mol
W141F | -7.1 °C and -7.5 °C | 170 kcal/mol and 80 kcal/mol

Same assay, conditions: Streptomyces sp. (strain N174); pH 7; Thermal; Fluorescence; sodium phosphate 50 mM; reversible: yes(81%); structure 1CHK; whole UniProt chain shown

Variant | Tm [°C] | change of melting temperature, mutant - wild type (higher = more stable) [°C] | unfolding enthalpy (van 't Hoff) [kcal/mol]
W267F | 37.3 | -5.9 | 132

Same assay, conditions: Streptomyces sp. (strain N174); pH 7; 42.7 °C; Thermal; CD; sodium phosphate 50 mM; transition: 3; reversible: yes(68%); structure 1CHK; whole UniProt chain shown

Variant | ddG of mutation (higher = less stable) [kcal/mol]
W68F W141F | 5.8

Same assay, conditions: Streptomyces sp. (strain N174); pH 7; 43.2 °C; Thermal; Fluorescence; sodium phosphate 50 mM; reversible: yes(80%); structure 1CHK; whole UniProt chain shown

Variant | ddG of mutation (higher = less stable) [kcal/mol]
W68F W141F | 8.03

Same assay, conditions: Streptomyces sp. (strain N174); pH 7; 52.2 °C; Thermal; CD; sodium phosphate 50 mM; transition: 3; reversible: yes(68%); structure 1CHK; whole UniProt chain shown

Variant | ddG of mutation (higher = less stable) [kcal/mol]
W68F W141F | 1.51

Same assay, conditions: Streptomyces sp. (strain N174); pH 7; Thermal; CD; sodium phosphate 50 mM; transition: 3; reversible: yes(68%); structure 1CHK; whole UniProt chain shown

Variant | change of melting temperature, mutant - wild type (higher = more stable) | unfolding enthalpy (van 't Hoff)
W68F W141F | -11.4 °C and -8 °C | 155 kcal/mol and 60 kcal/mol

Same assay, conditions: Streptomyces sp. (strain N174); pH 7; Thermal; Fluorescence; sodium phosphate 50 mM; reversible: yes(80%); structure 1CHK; whole UniProt chain shown

Variant | Tm [°C] | change of melting temperature, mutant - wild type (higher = more stable) [°C] | unfolding enthalpy (van 't Hoff) [kcal/mol]
W68F W141F | 31.2 | -12 | 204

Same assay, conditions: Streptomyces sp. (strain N174); pH 7; 43.2 °C; Thermal; Fluorescence; sodium phosphate 50 mM; reversible: yes(77%); structure 1CHK; whole UniProt chain shown

Variant | ddG of mutation (higher = less stable) [kcal/mol]
W141F | 4.27

Same assay, conditions: Streptomyces sp. (strain N174); pH 7; 42.7 °C; Thermal; CD; sodium phosphate 50 mM; transition: 3; reversible: yes(77%); structure 1CHK; whole UniProt chain shown

Variant | ddG of mutation (higher = less stable) [kcal/mol]
W68F | 3.56

Same assay, conditions: Streptomyces sp. (strain N174); pH 7; 43.2 °C; Thermal; Fluorescence; sodium phosphate 50 mM; reversible: yes(75%); structure 1CHK; whole UniProt chain shown

Variant | ddG of mutation (higher = less stable) [kcal/mol]
W68F | 4.43

Same assay, conditions: Streptomyces sp. (strain N174); pH 7; 52.2 °C; Thermal; CD; sodium phosphate 50 mM; transition: 3; reversible: yes(77%); structure 1CHK; whole UniProt chain shown

Variant | ddG of mutation (higher = less stable) [kcal/mol]
W68F | 1.76

Same assay, conditions: Streptomyces sp. (strain N174); pH 7; Thermal; CD; sodium phosphate 50 mM; transition: 3; reversible: yes(77%); structure 1CHK; whole UniProt chain shown

Variant | Tm [°C] | change of melting temperature, mutant - wild type (higher = more stable) [°C] | unfolding enthalpy (van 't Hoff) [kcal/mol]
W68F | 45.2 | -7 | 80

Same assay, conditions: Streptomyces sp. (strain N174); pH 7; Thermal; Fluorescence; sodium phosphate 50 mM; reversible: yes(75%); structure 1CHK; whole UniProt chain shown

Variant | Tm [°C] | change of melting temperature, mutant - wild type (higher = more stable) [°C] | unfolding enthalpy (van 't Hoff) [kcal/mol]
W68F | 36.2 | -7 | 196
